Experimental data published in patent US12264201B2, “Bispecific antibody targeting IL-1R1 and NLPR3” (University of Ulster, priority 2018, dated 2025).

Tests used:
Type in all cases: cell-based
[1] = tested on: THP1 cells; experiment: IL-1β release from LPS/ATP-stimulated differentiated THP1 cells (ELISA); settings: PMA-differentiated THP1; LPS 1 μg/ml 3 h, Ab 30 min (0.0025-2.5 ng/ml or 1 nM), ATP 5 mM 1 h; supernatant ELISA; FIG. 33
Protocol: THP1 cells, for FIGS. 33a and b, were cultured in 96-well plates at 100,000 cells/200 μl complete media. PMA (100 μg/ml for 72 hours) was used to differentiate THP-1 cells into macrophages. Following 24 hours of rest, differentiated THP1 cells were stimulated with LPS (1 μg/ml) for 3 hours, treated with MCC950 (1 μM) or the IL-1R1/NLRP3 Ab in a dose dependent fashion from 0.0025 ng/ml to 2.5 ng/ml for FIG. 33a or with IL-1R1/NLRP3 Ab (1 nM) for FIG. 33b or with IgG control antibody for 30 minutes, followed by ATP (5 mM) for 1 hour. IL-1β release was measured in the supernatant by ELISA.

[2] = tested on: THP1 cells; experiment: Caspase-1 activation in THP1 cells (FAM-FLICA staining, confocal)
Protocol: THP1 cells, for FIG. 34, were cultured in 96-well plates at 100,000cells/200 ul complete media. PMA (100 ug/ml for 72 hours) was used to differentiated THP-1 cells into macrophages. Following 24 hours of rest, differentiated THP1 cells were stimulated with LPS (1 ug/ml) for 3 hours, treated with the IL-1R1/NLRP3 Ab (1 μg/ml) for 30 minutes, followed by ATP (5 mM) for 1 hour. Caspase-1 activation was assessed by staining cells with a non-cytotoxic Fluorescent Labelled Inhibitor of Caspase-1 (FAM-FLICA) and DAPI (nuclear stain). Cells were treated with LPS alone (negative control), LPS+ATP (positive control), mouse IgG2a (1 ug/ml, Ab control), or IL-1r/NLRP3 bi-specific Ab (1 ug/ml, experimental). Representative confocal images are shown for each group. Green=active caspae-1 and blue=Dapi/nuclear stain.
(§1) Internalization of Inflamab—see FIG. 35. THP1 cells, for FIG. 35, were cultured in 96-well plates at 100,000cells/200 ul complete media. Differentiation of THP1 cells was induced by PMA (100 ug/ml for 72 hours). Following 24 hours of rest, differentiated THP1 cells were stimulated with LPS (1 ug/ml) for 3 hours, treated with a pHrodo red labelled IL-1r/NLRP3 Ab (1 ug/ml) for 30 minutes, followed by ATP (5 mM) for 1 hour. The internalization of the Ab was tracked using a pHrodo red labelled bi-specific Ab that only fluoresces when internalized.

[3] = tested on: THP1 cells; experiment: Internalization of pHrodo red labelled bi-specific Ab in THP1 cells; settings: pHrodo red labelled Ab 1 ug/ml 30 min; differentiated THP1, LPS then ATP; confocal; FIG. 35A
Protocol: as §1

B1: InflaMab: 210 kDa bispecific mouse antibody to IL-1R1 and NLRP3; light chain SEQ ID NO: 57, heavy chain with scFv SEQ ID NO: 59 (protein)
light: MVSSAQFLGLLLLCFQGTRCDIVMTQSPATLSVTPGDRVSLSCRASQSISDYLSWYQQRSHESPRLIIKYASQSISGIPSRFSGSGSGSDFTLSINSVEPEDVGVYYCQHGHSFPLTFGSGTKLELKRADAAPTVSIFPPSSEQLTSGGASVVCFLNNFYPKDINVKWKIDGSERQNGVLNSWTDQDSKDSTYSMSSTLTLTKDEYERHNSYTCEATHKTSTSPIVKSFNRNEC
heavy: MGWTLVFLFLLSVTAGVHSQIQLVQSGPELRKPGETVRISCKASGYPFTTAGLQWVQKMSGKGLKWIGWMNTQSEVPKYAEEFKGRIAFSLETAASTAYLQINNLKTEDTATYFCAKSVYFNWRYFDVWGAGTTVTVSSAKTTAPSVYPLAPVCGDTTGSSVTLGCLVKGYFPEPVTLTWNSGSLSSGVHTFPAVLQSDLYTLSSSVTVTSSTWPSQSITCNVAHPASSTKVDKKIEPRGPTIKPCPPCKCPAPNLLGGPSVFIFPPKIKDVLMISLSPIVTCVVVDVSEDDPDVQISWFVNNVEVHTAQTQTHREDYNSTLRVVSALPIQHQDWMSGKEFKCKVNNKDLPAPIERTISKPKGSVRAPQVYVLPPPEEEMTKKQVTLTCMVTDFMPEDIYVEWTNNGKTELNYKNTEPVLDSDGSYFMYSKLRVEKKNWVERNSYSCSVVHEGLHNHHTTKSFSRTPGKGSAGGSGGDSEVQLVESGGGLVKPGGSLKLSCAASGFTFSDYYMYWVRQTPEKRLEWVATISDGGTYTYYPDSVKGRFTISRDNAKNNLYLQMNSLKSEDTAMYYCARGWVSTMVKLLSSFPYWGQGTLVTVSAGGGGSGGGGSGGGGSQAVVTQESALTTSPGETVTLTCRSSTGAVTTSNYANWVQEKPDHLFTGLIGGTNNRAPGVPARFSGSLIGDKAALTITGAQTEDEAIYFCALWYSNYWVFGGGTKLTVLGQPK
[1]
  IL-1β release: prevents
[2]; differentiated THP1, LPS 1 ug/ml 3 h, Ab 1 μg/ml 30 min, ATP 5 mM 1 h, FAM-FLICA, FIG. 34
  caspase-1 activation: prevents
[2]; pHrodo red labelled Ab 1 ug/ml 30 min, LPS then ATP, confocal, FIG. 35B
  caspase-1 activation in THP1 cells that have internalized the bi-specific Ab as compared to cells that did not: significant reduction
[3]
  internalization of the Ab: shows the internalization
